{"source": "patent US20220177581A1", "about": "(Memorial Sloan Kettering, published 2022)", "binders": {"B1": {"name": "chimeric anti-CD22-CD3 BsAb (chLL2 x CD3 BsAb) (bispecific antibody)", "heavy": "not shown", "light": "DIQLTQSPSSLAVSAGENVTMSCKSSQSVLYSANHKNYLAWYQQKPGQSPKLLIYWASTRESGVPDRFTGSGSGTDFTLTISRVQVEDLAIYYCHQYLSSWTFGGGTKLEIKRTVAAPSVFIFPPSDEQLKSGTASVVCLLNNFYPREAKVQWKVDNALQSGNSQESVTEQDSKDSTYSLSSTLTLSKADYEKHKVYACEVTHQGLSSPVTKSFNRGECTSGGGGSGGGGSGGGGSQVQLVQSGGGVVQPGRSLRLSCKASGYTFTRYTMHWVRQAPGKCLEWIGYINPSRGYTNYNQKFKDRFTISRDNSKNTAFLQMDSLRPEDTGVYFCARYYDDHYSLDYWGQGTPVTVSSGGGGSGGGGSGGGGSGGGGSGGGGSGGGGSDIQMTQSPSSLSASVGDRVTITCSASSSVSYMNWYQQTPGKAPKRWIYDTSKLASGVPSRFSGSGSGTDYTFTISSLQPEDIATYYCQQWSSNPFTFGCGTKLQITR", "notes": "IgG-scFv format: huOKT3 scFv fused to the C-terminus of the LL2 IgG1 light chain; also called chimeric LL2 IgG+huOKT3 scFv"}}, "molecular_target": "T1, CD22 (UniProtKB-P20273) on CD22(+) cells (human, UniProt P20273 20-847)", "T1 construct": "Endogenous CD22 on the NALM6 and Raji cell lines; also called SIGLEC-2; BL-CAM", "T1 sequence": "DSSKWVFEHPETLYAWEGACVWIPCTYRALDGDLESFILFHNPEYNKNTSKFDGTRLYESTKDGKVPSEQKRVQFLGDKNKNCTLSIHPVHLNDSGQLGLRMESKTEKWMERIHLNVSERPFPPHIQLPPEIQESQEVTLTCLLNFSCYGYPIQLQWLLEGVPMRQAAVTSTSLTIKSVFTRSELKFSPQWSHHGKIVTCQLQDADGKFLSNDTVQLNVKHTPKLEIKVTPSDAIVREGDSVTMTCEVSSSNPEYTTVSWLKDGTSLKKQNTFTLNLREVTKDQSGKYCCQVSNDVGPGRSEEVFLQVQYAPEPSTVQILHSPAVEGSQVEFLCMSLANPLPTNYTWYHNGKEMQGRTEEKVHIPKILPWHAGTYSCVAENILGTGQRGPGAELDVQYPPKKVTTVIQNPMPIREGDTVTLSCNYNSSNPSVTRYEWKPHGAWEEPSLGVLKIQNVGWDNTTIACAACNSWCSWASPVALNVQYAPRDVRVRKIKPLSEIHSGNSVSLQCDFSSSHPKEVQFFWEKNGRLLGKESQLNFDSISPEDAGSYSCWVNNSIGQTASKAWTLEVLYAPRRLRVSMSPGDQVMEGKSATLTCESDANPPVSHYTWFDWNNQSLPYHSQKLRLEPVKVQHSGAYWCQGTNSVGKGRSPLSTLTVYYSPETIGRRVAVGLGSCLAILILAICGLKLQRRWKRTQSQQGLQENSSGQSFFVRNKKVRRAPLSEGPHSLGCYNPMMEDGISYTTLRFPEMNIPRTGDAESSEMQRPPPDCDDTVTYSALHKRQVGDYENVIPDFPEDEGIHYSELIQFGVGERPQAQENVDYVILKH", "assay": "flow cytometry (FACS) on CD22(+) NALM6 cells, detected with an anti-human Fc second antibody", "description": "The binding of bispecific CD22-CD3 IgG-scFv antibodies to NALM6 CD22(+) leukemic cells was assayed using FACS. CD22(−) MOLM13 AML cells were used as a negative control for CD22 expression, and anti-CD3 humanized OKT3 (huOKT3) was used as a negative antibody control. […] In contrast, neither the chimeric LL2 IgG+huOKT3 scFv nor the huOKT3 antibody stained the CD22(−) MOLM13 AML cells.", "data": [{"binder": "B1", "values": [{"measurement": "binding result", "result": "binds"}]}]}
